# Reference: paper PMC6747709 (2019)
# Positions count from the first letter of the chain named. Names and notes keep the numbering of the source. Where two headings read alike, the source gives them in different places.
# B1: Nb02 mutant M4 (VHH)
# VHH: EVQLQASGGGLVQAGGSLRLSCAASGFTNERSQNMGWFRQAPGKEREGVACIQSRVVECWYADSVKGRFTISRDNAKNTVYLQMNSLKPEDTAVYYCAAPRAITGHSAVGEHMCDYWGQGTQVTVSS
# B2: Nb02 mutant M1 (VHH)
# VHH: B1 VHH with G105W, A108F
# B3: Nb02 quadruple mutant M7 (G107W, T108H, S109V, F110A) (VHH)
# VHH: B1 VHH with Q53S, G105W, S107V
# B4: Nb02 mutant M3 (VHH)
# VHH: B1 VHH with S107V, A108F
# B5: Nb02 mutant M2 (VHH)
# VHH: B1 VHH with G105W, H106T, S107V, A108F
# B6: Nb02 mutant M6 (VHH)
# VHH: B1 VHH with G105W, S107V, A108F
# Tests used:
# Assay in all cases: SPR
# [1] = target: T1, CD47 extracellular domain (UniProt Q08722, biotin (enzymatically biotinylated; stated for the SPR experiment))
# [2] = target: T1, CD47 extracellular domain; remark: listed apart in the source
# [3] = target: T1, CD47 extracellular domain; remark: listed apart in the source
# [4] = target: T1, CD47 extracellular domain; remark: listed apart in the source
# [5] = target: T1, CD47 extracellular domain; remark: listed apart in the source
# [6] = target: T1, CD47 extracellular domain; remark: listed apart in the source
# T1 sequence (Q08722 19-141): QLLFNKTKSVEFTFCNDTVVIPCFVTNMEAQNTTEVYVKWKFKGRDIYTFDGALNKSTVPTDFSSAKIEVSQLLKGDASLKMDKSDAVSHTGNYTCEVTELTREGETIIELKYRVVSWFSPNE
binder,measurement,setting,value
B1,koff,[1],0.000392 s⁻¹
B2,koff,[2],0.000126 s⁻¹
B3,koff,[3],4.04e-05 s⁻¹
B4,koff,[4],0.000312 s⁻¹
B5,koff,[5],2.73e-05 s⁻¹
B6,koff,[6],0.000117 s⁻¹
